According to article PMC4138556:

Molecular target: D/D domain of human regulatory RIIα subunits of PKA (human)
Assay: AlphaScreen or HTRF

Chain of D/D domain of human regulatory RIIα subunits of PKA (human) (P13861 2-44): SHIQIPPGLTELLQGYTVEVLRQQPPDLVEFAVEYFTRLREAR

IC50: 12.7 nM
Substance: peptide AKAP18δ-L314E
